Results as given in US12006343B2, “C4BP-based compounds for treating immunological diseases” (FUNDACIO INSTITUT D'INVESTIGACIO BIOMEDICA DE BELLVITGE …, priority 2017, dated 2024).

What was measured:
[1] = tested on: human monocyte-derived DCs; assay: Immunomodulatory activity over human monocyte-derived DCs: CD83/CD86 surface expression by flow cytometry after LPS maturation; format: cell-based; settings: MoDCs pre-incubated with 5 μg/ml protein, LPS challenge; FIG. 4
[2] = tested on: human monocyte-derived DCs; settings: negative control; Olivar et al. 2013; cited from earlier work

B1: C4BP(β+): major C4BP α7β1 plus minor C4BP α6β1 isoforms (in complex with ProS) purified from pooled human plasma; negative control (protein, UniProt P04003 49-597; P20851 18-252, looked up)
C4b-binding protein alpha …: NCGPPPTLSFAAPMDITLTETRFKTGTTLKYTCLPGYVRSHSTQTLTCNSDGEWVYNTFCIYKRCRHPGELRNGQVEIKTDLSFGSQIEFSCSEGFFLIGSTTSRCEVQDRGVGWSHPLPQCEIVKCKPPPDIRNGRHSGEENFYAYGFSVTYSCDPRFSLLGHASISCTVENETIGVWRPSPPTCEKITCRKPDVSHGEMVSGFGPIYNYKDTIVFKCQKGFVLRGSSVIHCDADSKWNPSPPACEPNSCINLPDIPHASWETYPRPTKEDVYVVGTVLRYRCHPGYKPTTDEPTTVICQKNLRWTPYQGCEALCCPEPKLNNGEITQHRKSRPANHCVYFYGDEISFSCHETSRFSAICQGDGTWSPRTPSCGDICNFPPKIAHGHYKQSSSYSFFKEEIIYECDKGYILVGQAKLSCSYSHWSAPAPQCKALCRKPELVNGRLSVDKDQYVEPENVTIQCDSGYGVVGPQSITCSGNRTWYPEVPKCEWETPEGCEQVLTGKRLMQCLPNPEDVKMALEVYKLSLEIEQLELQRDSARQSTLDKEL
C4b-binding protein beta chain: SDAEHCPELPPVDNSIFVAKEVEGQILGTYVCIKGYHLVGKKTLFCNASKEWDNTTTECRLGHCPDPVLVNGEFSSSGPVNVSDKITFMCNDHYILKGSNRSQCLEDHTWAPPFPICKSRDCDPPGNPVHGYFEGNNFTLGSTISYYCEDRYYLVGVQEQQCVDGEWSSALPVCKLIQEAPKPECEKALLAFQESKNLCEAMENFMQQLKESGMTMEELKYSLELKKAELKAKLL
modifications: in complex with protein S
notes: major C4BP α7β1 plus minor C4BP α6β1 isoforms (in complex with ProS) purified from pooled human plasma; negative control
Question: For B1, which “semi-mature, anti-inflammatory phenotype conferred to LPS-matured MoDCs (immunomodulatory activity)” value [1] is on record?
Answer: inactive

Question: And the immunomodulatory activity [2]?
Answer: no immunomodulatory activity
